Assay results reported in patent US6805861B2, “Immunotherapy using cytotoxic T lymphocytes (CTL)” (Imperial College Innovations Limited, priority 1996, dated 2004).
Where two headings read alike, the source gives them in different places.

Experiments:
H-2K^b class I molecules = biological target: T1, H-2K^b class I molecules (Mus musculus, UniProt P01901); assay: Binding of peptide to H-2K^b class I molecules
T1 sequence (P01901 22-369): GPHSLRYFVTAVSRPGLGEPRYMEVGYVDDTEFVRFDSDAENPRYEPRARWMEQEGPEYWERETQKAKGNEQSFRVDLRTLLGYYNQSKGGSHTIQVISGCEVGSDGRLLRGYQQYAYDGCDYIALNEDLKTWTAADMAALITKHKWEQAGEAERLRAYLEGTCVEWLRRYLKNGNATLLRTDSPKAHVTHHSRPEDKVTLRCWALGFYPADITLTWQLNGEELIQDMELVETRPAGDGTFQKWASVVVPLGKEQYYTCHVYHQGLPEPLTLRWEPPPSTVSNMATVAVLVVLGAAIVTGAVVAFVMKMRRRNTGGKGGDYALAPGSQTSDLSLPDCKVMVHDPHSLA
T1 sequence (P01887 21-119 partner): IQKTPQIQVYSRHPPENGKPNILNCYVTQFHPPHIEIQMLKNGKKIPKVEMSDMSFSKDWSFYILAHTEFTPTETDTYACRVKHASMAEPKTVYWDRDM
Method: Peptides: The mdm100 peptide corresponds to amino acid 100-107 (YAMIYRNL; SEQ ID No 1) of the murine mdm-2 protein. […] All peptides used in this study were synthesised by the central peptide synthesis laboratory of the Imperial Cancer Research Fund, London, using finoc chemistry. The quality of the peptides were assessed by HPLC analysis and the expected molecular weight was observed using MALDI mass-spectrometry. The peptides were dissolved in phosphate buffered saline (pH 7.4) to give a concentration of 2 mM and stored at −20° C.

[1] = CTL stimulation by mdm100 peptide in C57BL/6 mice; format: in vivo, mouse; conditions: self-restricted repertoire

In the case of YAMIYRNL [mdm100 peptide], the “binding to H-2K^b class I molecules” value (H-2K^b class I molecules) is reported as “bound efficiently”, the “binding to H-2K^b class I molecules” value (H-2K^b class I molecules; listed as mdm100) is reported as “efficiently bound” and the “CTL stimulated by the peptide in C57BL/6 mice (H-2^b)” value [1] is reported as “only stimulated low avidity CTL”.
